From PMC6927192, “Comparative phosphorylation map of Dishevelled 3 links phospho-signatures to biological outputs” (Cell Communication and Signaling : CCS, 2019)
Square brackets hold non-standard residues; d marks the D form. Ends that are not written are not given here. pS = N[C@@H](COP(=O)(O)O)C(=O)O

Target: T1, Human DVL2 PDZ domain (aa 265–361) (human, UniProt O14641 265-361)
T1 construct: Dishevelled 2 (DVL2), human, PDZ domain, residues 265-361; 15N-labelled for the NMR titration; The pET construct has a TEV cleavage site after the tags; also called wt PDZ; wildtype PDZ; source: E. coli BL21-DE3(RIL), purified
T1 sequence (looked up): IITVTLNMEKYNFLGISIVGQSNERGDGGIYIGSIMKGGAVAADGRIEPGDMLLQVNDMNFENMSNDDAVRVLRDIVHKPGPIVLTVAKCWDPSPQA
Assay: NMR titration; series of 1H-15N HSQC spectra, 100 μM 15N-labeled PDZ (wild type or phosphomimicking mutant) with increasing amounts of DVL_C peptide (stock 800 μM); proteins stored in 20 mM Hepes (pH 6.8), 50 mM KCl; 700 MHz; qualitative analysis
Conditions: both partners purified

binding result: binds
B1: DVL3_C peptide 698–716 with phosphorylated S700 (peptide, UniProt Q92997 698-716, looked up)
peptide: RQ[pS]FRMAMGNPSEFFVDVM
notes: Dishevelled 3 (DVL3), human, C-terminal residues 698-716; also called DVL3 C-terminal peptide; source: bought: KareBay Biochem, Inc. (New Jersey, USA)
